Source: the supplement of paper PMC12764529
± gives the half width of the 95% confidence interval.

Tests used:
[1] = folding stability dG unfold from trypsin proteolysis; higher = more stable
In short: (§1)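 Only designs with AlphaFold2 dimer inter-PAE above 15 were retained; each was a mini-protein under 80 residues with no cysteine, in a PA-tagged cDNA display construct. After digestion with trypsin and chymotrypsin and sequencing, K50 was inferred by Bayesian fitting of counts, and unfolding free energy was derived per protease or combined against a sequence-predicted unfolded-state K50 and a shared folded-state K50.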

[2] = folding stability dG unfold from chymotrypsin proteolysis; higher = more stable
In short: as §1

[3] = folding stability dG unfold (combined trypsin and chymotrypsin); higher = more stable
In short: as §1

Sequence | folding stability dG unfold [1] [kcal/mol] | folding stability dG unfold [2] [kcal/mol] | folding stability dG unfold [3] [kcal/mol]
SAGGSMNPSVSVEEEVFPDGVTRLKLTFSDGKELEAEVTRHADGNVQVTLYDKSPGKKTTYTIPLSSAGGSA [r2_99_JUSTAS] | 0.65 ± 0.12 | 1.57 ± 0.22 | 1.21 ± 0.21
SAGGSMNPYSETITVNLPVPTPSGGSVVRPVTVPISIVYEDEKELEEALKKAKEEAEAAARKALGLESAGGS [r16_339_JUSTAS] | 1.37 ± 0.067 | 0.685 ± 0.069 | 1.05 ± 0.11
SAGGSMPPDTEIAVIRVEVRPPDGSTLPLLFTVPLEKVEEVAKEIAERLREKGYEVKVELAAVFPVSAGGSA [r2_274_TrMRF] | 2.06 ± 0.057 | 2.18 ± 0.06 | 2.04 ± 0.11
SAGGSMPPIVASVVEVRFYRFEEEDRERLEAEVTLKLKDGSTATIRLEFPDLSEEELLKTVEETLLSAGGSA [r2_26_JUSTAS] | 1.78 ± 0.042 | 2.525 ± 0.022 | 2.31 ± 0.043
SAGGSMPVPYESKNVSPSGVEVSSTTYPYDFQIEKFPGSNPVITRTDPKTGEVTPIGTEEELEKLLKSAGGS [r8_232_JUSTAS] | -0.172 ± 0.047 | 0.182 ± 0.21 | 0.0982 ± 0.13
SAGGSMSAEELREKIAADPRISLDDVTVTVTRTPDSVTVTVTLKDPNDPVYVEAEERARALFAELASAGGSA [r2_3_JUSTAS] | 0.704 ± 0.024 | -1 ± 0.24 | 0.16 ± 0.049
SAGGSMTAEELAEELAARHPDATVERSPSGVVTFRLPATGLTVTVSSGAGELRITVEDPTVPRRTLESAGGS [r16_478_JUSTAS] | 0.0944 ± 0.27 | -0.527 ± 0.5 | -0.312 ± 0.3
SAGGSMTAEELEGLPAEEIAELLPSDYTVSFIPETGLLVVEAPTRVVLATYNPAEGTVTLLEVRDASAGGSA [r2_470_TrMRF] | 0.849 ± 0.086 | 0.819 ± 0.07 | 0.91 ± 0.12
SAGGSMTEEELEKKAKEIAEELEKKYKEENPNVEVKVTFEVIPEKGIIKITATSPKGKKLKEIIIPLLSAGG [r13_247_JUSTAS] | 3.74 ± 0.28 | 3.54 ± 0.23 | 3.9 ± 0.31
SAGGSMTEEERRALAEEIAKEVAEKISEEEGIPVKEILSIEVHPDGSVTITIKFPGTEGERTITIPRSAGGS [r16_622_JUSTAS] | 1.96 ± 0.067 | 2.38 ± 0.17 | 2.27 ± 0.19
SAGGSMTITITNEDGSTYEITVEEENGKLRITITVDGKTVEIEFDKETGKITIRYNGKTFTLTIKPSAGGSA [r2_194_TrROS_Hall] | 3.85 ± 0.19 | 5.33 ± 0.13 | 5 ± 0.42
SAGGSMTITYDPETNTVTILDPNIPPNEPRPVTLTLPDGEKYTLTLRPVPGNGWTGTLTWKSTKDGSAGGSA [r2_89_TrMRF] | 0.911 ± 0.05 | 1.54 ± 0.19 | 1.27 ± 0.21
SAGGSMTMTVEIHYPDGTVETRTVPYAPDDPAAAIAAVKAEVEARGGEVLAVETRDGVVTVKALVPPSAGGS [r16_662_JUSTAS] | 2.4 ± 0.07 | 3.01 ± 0.086 | 2.72 ± 0.095
SAGGSMTTITLTLEFELDENGEVDPEKIEAEAEKIKEENPEIKELTVEVKRDPNSNKITVTVTAKVPSAGGS [r8_258_JUSTAS] | 2.79 ± 0.2 | 3.29 ± 0.19 | 3.06 ± 0.18
SAGGSMTVVIVKLRPPDSPEVLYLPFRGRLPNGDWVPISLEELLEALEALPDLEVEEIIVAPPEEISAGGSA [r2_192_TrMRF] | 1.73 ± 0.16 | 1.74 ± 0.087 | 1.7 ± 0.23
SAGGSMVIEAEIEFPDMTPEEVEERAEEIAEAAAEFARKKGFPIKKVEADVEVFPGEGVVKVTVTLEGSAGG [r13_212_TrMRF] | 0.612 ± 0.043 | 0.204 ± 0.2 | 0.611 ± 0.11
SAGGSMVIRVETPEEAEEAARELAERLRELFPEVKELEIKVKVEVVDEETGEEKEYEFTIKLKLPPSAGGSA [r2_393_TrROS_Hall] | 2.54 ± 0.12 | 2.62 ± 0.098 | 2.62 ± 0.24
SAGGSMVITITFPDGSTVTIPEEELLELLKKYGIEPDESDKEKVAKEAAKIIGEEKGIPIKEVKINSAGGSA [r2_83_JUSTAS] | 1.54 ± 0.059 | 3.43 ± 0.092 | 3.01 ± 0.066
SAGGSMVKEIEIPVPEDWTPEDAVEAAREYLEANPELENVIVRFTLPDGTPLVVEIKPGGKIVKVTPESAGG [r13_690_JUSTAS] | 1.71 ± 0.069 | 3.26 ± 0.07 | 2.83 ± 0.15
SAGGSMVRVTIEDKDGKEHWIMIPPGMDPNDVKQQIKKFLEDNGWKVKDVEVETYPPGWAMIRVRVSAGGSA [r2_148_TrROS] | 1.88 ± 0.021 | 2.33 ± 0.031 | 2.2 ± 0.052
SAGGSMVSEEEIKEIVEKTAAELPEDAVEPVTVTIELPNPDGTTTVLTITITRSPTSISYTVSSSPAASAGG [r19_220_JUSTAS] | 3.56 ± 0.11 | 3.27 ± 0.048 | 3.34 ± 0.039

Sequence | folding stability dG unfold [1] [kcal/mol] | folding stability dG unfold [2] [kcal/mol] | folding stability dG unfold [3] [kcal/mol]
SAGGSMVVTETLVETLTETLTFPDGTPVTVTVPVTVTVEVYLPEPPAPPPLPFSRLAEELGDPALVSAGGSA [r2_340_JUSTAS] | -0.838 ± 0.26 | -0.661 ± 0.43 | -0.623 ± 0.15
SAGGSNPNMFRLKVEIEPYEYRDPDGQPKARVWKIDIEMEPGMPPNMAKNIASNFQNRGLPVKIEPSAGGSA [r2_456_TrROS] | 0.102 ± 0.18 | 0.689 ± 0.12 | 0.578 ± 0.16
SAGGSPARPVLVTITLPDGEEVTRRMTLEEIERLVAKDPNVKVTIELPDGSVYTVDPNTGTITKAPSAGGSA [r2_222_JUSTAS] | 2.84 ± 0.075 | 2.49 ± 0.026 | 2.63 ± 0.14
SAGGSPATVLSSSTLSTTPLPDGTTLTTSETVTLLPNGEPVVTTTTTTTAPDGSVTTTTTTTPLDAASAGGS [r16_261_JUSTAS] | 1.05 ± 0.043 | 0.671 ± 0.043 | 0.885 ± 0.047
SAGGSPDIKFNEVKVELPTAETEAEFEKNTYKVEVPAPPELDITTTTTLTTSSGSTTTTTSTSPLELPSAGG [r13_191_JUSTAS] | 0.0505 ± 0.06 | -1.11 ± 0.79 | -0.304 ± 0.11
SAGGSPEVKIEIEVTERVTVFDENGKPVEEVLVVKAKITFPDGTTATITAFFYEGKWFITSIELEPSAGGSA [r2_158_TrROS_Hall] | 3.84 ± 0.25 | 4.83 ± 0.24 | 4.62 ± 0.27
SAGGSPEVKVLLFYDPATGERVVVVVTYDPATGEKKVLVFVESRPELVELVKKLLEDLGYEVEVVPSAGGSA [r2_30_TrMRF] | 3.39 ± 0.19 | 3.82 ± 0.16 | 3.63 ± 0.11
SAGGSPGQPYYIMIKLEWENPEDGEEHTFDIMFPVKSAEDAKDYILKELLPPGHKLKIDDISIMPMSAGGSA [r2_320_TrROS] | 1.48 ± 0.022 | 1.19 ± 0.1 | 1.4 ± 0.15
SAGGSPGSSLIGKKKLTIKVDNKDVEVEVTTSLSFLPSNQVTTSTEVKITLPNGKKIPKSLVEKLLSAGGSA [r2_363_JUSTAS] | 0.711 ± 0.044 | 0.66 ± 0.17 | 0.742 ± 0.12
SAGGSPHVSTDAADPELAARLLREAFGTDEVPLVRRDPTTGALLAFLPATGRLVWTDRTTVRVEPSSAGGSA [r2_205_TrMRF] | 0.325 ± 0.13 | -0.0869 ± 0.13 | 0.13 ± 0.074
SAGGSPIIRVKVTYYPPDGSVTVYLPADSVDELIDALNSVPDIPVTPTDGDTIIASTPDAIVEITVESSAGG [r13_143_TrMRF] | 0.471 ± 0.031 | 0.849 ± 0.032 | 0.717 ± 0.097
SAGGSPIQTAVTTNTLGNETITTTTLVPPEAVATSVTTVYEPDPNSDNYVVKSVLTTTTSTLPPSDAASAGG [r13_568_JUSTAS] | -0.417 ± 0.055 | 0.0608 ± 0.067 | -0.0865 ± 0.062
SAGGSPISLEVSTSTLPDGTLRVTTTATSPDSSRSYTVTLDFPPSQPEEIPARAAAEAAAIAADPAVASAGG [r13_968_JUSTAS] | -0.552 ± 0.19 | 1.35 ± 0.058 | 0.907 ± 0.086
SAGGSPMRIRDVEIEEFDPDAGRIEIRFPSNGNTIKIPIPPGHKSLKIKIRMKNGEPFEQTITIPPSAGGSA [r2_132_TrROS] | 0.578 ± 0.14 | 1.08 ± 0.12 | 1.01 ± 0.22
SAGGSPPPLRITYKIRMGGQPFEWTIPIPADDLPPGQQIEIDIRIKKMDPENNRMRMEIDDVEVTPSAGGSA [r2_479_TrROS] | -0.209 ± 0.32 | 0.979 ± 0.27 | 0.76 ± 0.19
SAGGSPTIKLEILLPKEMTPEEVEALARELEEAGYEIVSIKVETVKDEDGREWVRVTITLRPKEDLSAGGSA [r2_442_TrROS_Hall] | 3.21 ± 0.076 | 3.97 ± 0.045 | 3.73 ± 0.092
SAGGSPTREVVLPTKDPTADKAFYTVRITLTEPPSNSTAVTVTFLDLPPDVEPSPELVAAVEAALSSAGGSA [r2_7_JUSTAS] | 0.46 ± 0.036 | 0.436 ± 0.13 | 0.495 ± 0.056
SAGGSPVYKVEIRMTIVDKNGTVKSIVNLELTFKTEEEIEKFLESIPKETVVEIEIEKRTVEPPEKLSAGGS [r16_677_JUSTAS] | 2.12 ± 0.055 | 0.699 ± 0.068 | 1.41 ± 0.11
SAGGSQEELAKQLAEELAKKEGLKEVKVSITPSPGPVLNITFEFYDENGNKKGVKSKTIPLPPDLLSAGGSA [r2_153_JUSTAS] | 1.06 ± 0.11 | 0.0811 ± 0.15 | 0.515 ± 0.53
SAGGSSEIVELKSIEKKGNSVILTLESKTNDYKVVVVIEGNKIRAYVFDKNGNIIAEFEFDGHPYLSAGGSA [r2_437_TrMRF] | 2.41 ± 0.11 | 3.34 ± 0.046 | 3.15 ± 0.15
SAGGSSIKIEKIEKHENGVKIDISVPDLSNEEEINAVKKKLAEELGLKEEDVEVSLKSENIPLPPSIGSAGG [r13_430_JUSTAS] | 0.474 ± 0.11 | 2.32 ± 0.21 | 1.75 ± 0.22
